From patent publication US20260042827A1, “ANTI-WT1 ANTIGEN-BINDING PROTEINS AND USES THEREOF” (UNIVERSITY HEALTH NETWORK, priority 2022, published 2026)

System: WT1 peptide presented by HLA-DP molecules on K562 transfectants
Experiment: Flow cytometric staining of K562 transfectants with WT1-specific mAb
Assay type: cell-based, human
Conditions: flow cytometry; for recognition of naturally processed WT1 peptide on K562/DP cells: K562/DP2 and K562/DP4, endogenous or ectopic WT1; for recognition of exogenously-pulsed WT1 peptide presented by DP molecules: K562 transfectants pulsed with WT1 peptide
Protocol: FIGS. 5A-5S present data showing that WT1-specific mAbs bind to WTT peptide presented by HLA-DP molecules. FIGS. 5A-5B show binding of B7/21 (an anti-HLA-DP mAb) or WT1-specific mAbs to immobilized WT1 peptide or DP4/WT1 monomers as assessed by ELISA. m Abs were added to ELISA plate coated with WT1330-348 or CLIP (control) (FIG. 5A). mAbs were added to ELISA plate coated with DP4/WT1330-348 monomers or DP4/CLIP monomers (control) (FIG. 5B). The data shown represent the mean±SD of experiments performed in triplicates. Results are representative of two independent experiments. ns, not significant, *p<0.05, **p<0.01, ***p<0.001, ****p<0.0001 by two-way ANOVA with Bonferroni correction. […] Interaction strength was measured by a BLI binding assay. FIGS. 5F-5K show the indicated K562 transfectants pulsed with WT1330-348 or CLIP (control) and stained with WT1-specific mAb, 5H2, followed by PE-conjugated anti-mouse secondary Ab and flow cytometric analysis. FIGS. 5L-5S show the indicated K562 transfectants stained with WT1-specific mAb, 5H2, or isotype control mAb, followed by PE-conjugated anti-mouse secondary Ab and flow cytometric analysis.
For surface staining, cells were pelleted and resuspended in a mAb master mix diluted in a PBS/2% FBS buffer. Cells were incubated at 4° C. for 15 minutes and washed prior to analysis. Monoclonal antibodies recognizing the following targets were used for surface staining: CD4 (300505, 1:40, BioLegend), CD8 (301007, 1:100, BioLegend), pan HLA class II (361703, 1:100, BioLegend), NGFR (345131, 1:40, BioLegend), CD25 (301007, 1:100, BioLegend), CD62L (304805, 1:25, BioLegend), CD45RA (304111, 1:10, BioLegend), PD-1 (329905, 1:40, BioLegend), Tim-3 (345007, 1:20, BioLegend). Mouse isotype controls were purchased from BioLegend. Biotinylated Protein-L was purchased from GenScript. For intracellular cytokine staining, TCR or CAR-T cells were stimulated with indicated target cells at an E:T ratio of 1:1. Brefeldin A (BioLegend) was added to the culture media after 2 hours, and the cells were further cultured for 4 hours. Following the surface marker staining, the cells were fixed and permeabilized using the Cytofix/Cytoperm Kit (BD Biosciences) and stained with FITC-anti-IL-2 (500305, 1:20, BioLegend), APC-anti-TNF-α (502913, 1:100, BioLegend), and PE-Cy7-anti-IFN-7 (506517, 1:200, BioLegend). The frequency of cytokine-producing cells within the CD8^+ or CD4^+ T cell population was determined by flow cytometric analysis. For intracellular WT1 staining, cells were fixed and permeabilized using the Cytofix/Cytoperm Kit (BD Biosciences) and stained with mouse anti-WT1 mAb (NB110-60011SS, 1:200, Novus Biologicals), followed by BV421-anti-mouse IgG (405317, 1:20, BioLegend). […]

B1: 5H2: mouse WT1-specific mAb raised against WT1330-348 peptide; VH SEQ ID NO: 37, VL SEQ ID NO: 38 (antibody, V domains shown)
VH: EVQLQQSGAELVRPGALVKLSCKASGFNIKDYYMHWVKQRPEQGLEWIGWIDPENGNTIYDPKFQGKASITADTSSNTAYLQLSSLTSGDTAVYYCTRDGYYMVFAYWGQGTLVTVSA
VL: DIQMTQSPSSLSASLGGKVTITCKASQDINKCIAWYKHKPGKGPRLLIHYTSILQPGIPSRFSGSGSGRDYSFSISNLEPEDIATYYCLQYDNLYTFGGGTKLEIK
modifications: 5H2 - VH; 5H2 - VL
For B1, the “recognition of naturally processed WT1 peptide on K562/DP cells” value was “can bind to K562/DP2 and K562/DP4 cells which express endogenous WT1”, the “recognition of naturally processed WT1 peptide on K562/DP cells” value (listed as WT1-specific mAb) was “can recognize naturally processed WT1 peptide presented by HLA-DP2” and the “recognition of exogenously-pulsed WT1 peptide presented by DP molecules” value was “can recognize exogenously-pulsed WT1330-348 presented by multiple DP molecules such as DP2 and DP5 in addition to DP4”. The “recognition of exogenously-pulsed WT1 peptide presented by DP molecules” value (listed as WT1-specific mAb) was “can recognize exogenously-pulsed WT1328-348 peptide presented by different HLA-DP molecules”.
